Data from patent publication US20230090487A1 (published 2023).
Positions count from the first letter of the chain named. Each block holds one binder with its values, some of them ahead of it.

Legend:
[1] = target: T1, human IgE (myeloma IgE) (human, UniProt P01854-1 1-428); experiment: SPR, Biacore T2000; range told of the chosen antibodies, this end tied to S91 by paragraph 147
T1 construct: Myeloma IgE coupled by amine coupling to a CM5 chip for Biacore; Also used to sensitize human FcεRIα-expressing 3D10 cells; also called PS IgE
T1 sequence (P01854 other isoform, or with tags, fused parts or gaps): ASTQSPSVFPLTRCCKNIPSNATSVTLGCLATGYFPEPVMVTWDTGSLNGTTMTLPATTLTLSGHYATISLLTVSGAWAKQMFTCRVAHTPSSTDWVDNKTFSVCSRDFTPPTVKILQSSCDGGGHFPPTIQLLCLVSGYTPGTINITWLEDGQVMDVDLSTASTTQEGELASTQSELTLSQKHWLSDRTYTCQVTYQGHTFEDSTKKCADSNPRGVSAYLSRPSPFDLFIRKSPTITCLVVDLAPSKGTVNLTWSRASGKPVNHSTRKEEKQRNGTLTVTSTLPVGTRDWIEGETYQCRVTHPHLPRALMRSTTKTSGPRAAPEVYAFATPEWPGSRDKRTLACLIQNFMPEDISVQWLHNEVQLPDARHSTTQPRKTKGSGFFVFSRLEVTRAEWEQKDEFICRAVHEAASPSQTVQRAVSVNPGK
Description: (§1) The complementary determining region (CDR) sequences and the specificity-determining residues (SDR) of each heavy chain variable (VH) and light chain variable (VL) regions were engrafted into the framework (FR) regions of the most homologous human germline sequences. All the recombinant mAbs were transiently expressed in 293 cells in small scale (50 ml transfection volume) and purified by protein A affinity column for downstream application. The humanized mAbs not expressing or expressing <1 μg/ml recombinant antibody were eliminated. The affinity of humanized LAAIGE (hLAAIGE) to […] was determined by the surface plasmon resonance using Biacore T2000 instrument (Biacore AB, Uppsala, Sweden) with a CM5 sensor chip coupled with myeloma IgE by amine coupling. The purified hLAAIGEs were dissolved in HBS-EP assay buffer containing 0.15 M NaCl, 10 mM HEPES, pH 7.4, 3 mM EDTA, and 0.005% polysorbate 20. The solutions traversed the sensors at a flow rate of 50 μl/minute for binding analysis. Binding results were expressed in resonance units. Kinetic studies were analyzed with BIAevaluation Software Version 4.1. […] The binding of the selected hLAAIGE to the cell surface-bound IgE was confirmed using the human FcεRIα expressing 3D10 cells sensitized with myeloma IgE.

[2] = target: T1, human IgE (myeloma IgE); experiment: SPR, Biacore T2000, myeloma IgE amine-coupled to CM5 chip, antibody in solution
Description: as §1

[3] = target: T1, human IgE (myeloma IgE); experiment: binding affinity for human IgE; method not stated for the founders
[4] = target: T1, human IgE (myeloma IgE); experiment: SPR (Biacore method); range told of the group, this end tied to H6.2 by paragraph 147
Description: as §1

[5] = target: T1, human IgE (myeloma IgE); experiment: SPR (Biacore method); range told of the group, this end tied to E14 by paragraph 147
Description: as §1

Kd [1]: 7000 nM
Kd [2]: 7410 nM
B1: hLAAIGE S91 (antibody, human IgG1, lambda, V domains shown)
VH: QVQLVQSGAEVKKPGASVKVSCKASGYTFTSYGISWVRQAPGQGLEWMGWISAYNGNTNYAQKLQGRVTMTTDTSTSTAYMELRSLRSDDTAVYYCARVSSWPYWYFDLWGRGTLVTVSS
VL: QSAVTQPPSASGSPGQSVTISCTGTSSDVGAYDYVSWYQQHPGKAPKLMIYEVSKRPSGVPDRFSGSKSGNTASLTVSGLQAEDEADYYCSSYAGRVDVFGGGTKLTVLG
notes: The entries are labelled 'VH' and 'VL' but are full heavy (human IgG1) and lambda light chains; Humanized, derived from Founder F11

Kd [3]: ~2540 nM
B2: Founder P6.2 (low affinity anti-human IgE founder mouse mAb) (antibody, V domains shown)
VH: QVQLQQSGAELVRPGTSVKVSCKASGYAFTNYLIEWVKQRPGQGLEWIGVINPGSGFTKYNEKFKGKATLTADKSSSTAYMHLSSLTSDDSAVYFCAREDVYSWFAYWGQGTLVTVSA
VL: DIVLTQSPASLAVSLGQRATISCRASESVDSYGNSFMHWYQQKPGQPPKLLIYRTSNLESGIPARFSGSGSRTDFTLTINPVEADDVATYFCQQSYEDPFTFGSGTKLEIK
notes: Mouse hybridoma mAb

Kd [4]: 50000 nM
Kd [2]: ~50000 nM
B3: hLAAIGE H6.2 (antibody, human IgG1, lambda, V domains shown)
VH: QVQLGQSGGGVVQPGRSLRLSCAASGFTFSNYLIEWVRQAPGKGLEWVAVINPGSGFTKYNEKFKQRFTISRDNSKNTLYLQMNSLRAEDTAVYYCAREDVYSWFAYWGQGTLVTVSA
VL: QSALTQPASVSGSPGQSITISCTRASESVDSYGNSFMHQHHPGKAPKLMIYEVRTSNLESSNRFSGSKSGNTASLTISGLQAEDEADYYCSSQQSYEDPFTFGSGTKLGQPK
notes: The entries are labelled 'VH' and 'VL' but are full heavy (human IgG1) and lambda light chains; Humanized, derived from Founder P6.2

Kd [5]: 70 nM
Kd [2]: 67.2 nM
B4: hLAAIGE E14 (antibody, human IgG1, kappa, V domains shown)
VH: QVQLVQSGSELKKPGASVKVSCKASGYTFTNYGMNWVRQAPGQGLEWMGWINTYTGEPTYADDFKGRFVFSLDTSVSTAYLQISSLKAEDTAVYYCARGAASHTMDYWGQGTTVTVSS
VL: DIVMTQSPDSLAVSLGERATINCRASQSVSTSAHSYMHWYQQKPGQPPKLLIYYASNLESGVPDRFSGSGSGTDFTLTISSLQAEDVAVYYCQHSWEIPWTFGQGTKLEIKR
notes: The entries are labelled 'VH' and 'VL' but are full heavy (human IgG1) and kappa light chains; Humanized, derived from Founder E17

Kd [2]: 109 nM
B5: hLAAIGE E23 (antibody, human IgG1, kappa, V domains shown)
VH: B4 VH
VL: B4 VL with A33S, H34Y, E59K, S60A
notes: as for B4

Kd [2]: 140 nM
B6: hLAAIGE E17 (antibody, human IgG1, kappa, V domains shown)
VH: B4 VH
VL: B4 VL with A33S, S35A
notes: Humanized clone E17, a different molecule from the mouse Founder E17; The entries are labelled 'VH' and 'VL' but are full heavy (human IgG1) and kappa light chains

Kd [2]: 164 nM
B7: hLAAIGE E59 (antibody, human IgG1, kappa, V domains shown)
VH: B4 VH
VL: B4 VL with A33S
notes: Humanized, derived from Founder E17; Expressed in 293 cells
